Measurements published in patent publication US20240018265A1 (FRIEDRICH MIESCHER INSTITUTE FOR BIOMEDICAL RESEARCH, published 2024).

Tests used:
[1] = target: T1, Purified His-tagged human HDAC6 ZnF domain (1108-1215) (human, UniProt Q9UBN7 1108-1215); assay: pull-down with anti-Flag agarose beads from a mix of His-ZnF (1108-1215), Flag-DARPin and mono-ubiquitin; immunoblot with anti-His, anti-ubiquitin and anti-Flag
T1 construct: range 1108-1215; also called ZnF-UBP; His-HDAC6 ZnF (1108-1215); not shown: His tag from vector pOPINF
T1 sequence (looked up): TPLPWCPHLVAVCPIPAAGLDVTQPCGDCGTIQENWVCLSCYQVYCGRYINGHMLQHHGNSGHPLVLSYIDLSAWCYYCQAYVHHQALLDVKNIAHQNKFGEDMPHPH
From the text: (§1) [0013] (A) Schematic of HDAC6, showing the catalytic domains (CD1, CD2) and the zinc finger domain (ZnF) region that was expressed (amino acids 1108 to 1215) and used to identify binders. Generic nanobody and DARPin structures (PDB:1I3V and PDB:2QJY, respectively) are shown below. […] [0014] […] PD, pull-down; FT, flow-through. [0015] […] A plasmid expressing mRuby was included in all transfections as a control for transfection efficiency (red signal). Scale bar presents […]. [0016] […] [0017] […] Immunoprecipitated material (from D above) was analysed by mass spectrometry and enriched proteins are annotated.

[2] = target: T2, GFP(10)-ubiquitin (UniProt P0CG48 1-76); assay: split-GFP assay in 293T cells (specificity control)
T2 construct: Expressed in 293T cells; not shown: GFP beta strand 10 and any linker

[3] = target: T3, endogenous HDAC6 (A549 cells) (human, UniProt Q9UBN7 1-1215); assay: GFP-trap immunoprecipitation of GFP-DARPin F10 against control GFP-DARPin E3_5 from A549 cells, mass spectrometry, volcano plot
T3 construct: Endogenous intracellular protein, not a recombinant construct; also called histone deacetylase 6
T3 sequence (looked up): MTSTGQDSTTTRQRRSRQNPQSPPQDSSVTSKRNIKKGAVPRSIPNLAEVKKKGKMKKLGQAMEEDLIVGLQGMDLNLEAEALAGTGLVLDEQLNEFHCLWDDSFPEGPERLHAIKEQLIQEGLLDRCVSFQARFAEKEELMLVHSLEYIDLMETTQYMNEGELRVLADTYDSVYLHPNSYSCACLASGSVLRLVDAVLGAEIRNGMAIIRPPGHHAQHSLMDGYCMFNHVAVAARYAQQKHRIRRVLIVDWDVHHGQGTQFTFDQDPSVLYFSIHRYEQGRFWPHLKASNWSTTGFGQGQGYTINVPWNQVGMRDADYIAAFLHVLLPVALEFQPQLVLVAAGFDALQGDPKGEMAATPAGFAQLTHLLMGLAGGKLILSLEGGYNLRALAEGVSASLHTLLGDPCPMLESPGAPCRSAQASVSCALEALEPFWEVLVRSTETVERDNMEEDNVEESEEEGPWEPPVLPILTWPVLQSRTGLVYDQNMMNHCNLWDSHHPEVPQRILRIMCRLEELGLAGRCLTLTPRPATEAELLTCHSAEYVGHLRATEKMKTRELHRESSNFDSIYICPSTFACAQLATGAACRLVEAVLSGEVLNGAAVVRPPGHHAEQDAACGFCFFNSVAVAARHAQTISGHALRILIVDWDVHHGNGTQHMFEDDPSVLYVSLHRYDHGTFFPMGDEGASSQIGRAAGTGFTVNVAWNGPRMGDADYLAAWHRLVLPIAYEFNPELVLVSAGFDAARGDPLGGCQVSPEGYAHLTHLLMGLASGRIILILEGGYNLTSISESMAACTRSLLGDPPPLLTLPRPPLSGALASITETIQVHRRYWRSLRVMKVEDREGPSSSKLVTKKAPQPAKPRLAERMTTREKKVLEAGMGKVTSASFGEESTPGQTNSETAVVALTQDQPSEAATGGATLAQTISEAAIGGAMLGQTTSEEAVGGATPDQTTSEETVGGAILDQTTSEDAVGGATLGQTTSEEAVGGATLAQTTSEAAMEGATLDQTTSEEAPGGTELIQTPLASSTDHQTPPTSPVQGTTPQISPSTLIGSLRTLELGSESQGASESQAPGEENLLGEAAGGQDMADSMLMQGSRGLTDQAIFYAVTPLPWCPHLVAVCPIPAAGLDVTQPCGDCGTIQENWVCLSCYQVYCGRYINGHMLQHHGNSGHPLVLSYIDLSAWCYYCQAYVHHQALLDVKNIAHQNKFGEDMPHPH
From the text: as §1

B1: Flag-tagged DARPin F10 (F10 with histidine and detection tags) (designed binder)
chain: MRGSHHHHHHHHGSDLGKKLLEAARAGQDDEVRILMANGADVNANDRNGVTPLHLAADKGHLEIVEVLLKTGADVNAIDIMGATPLHLAAAHGHLEIVEVLLKAGADVNAMDHKGFTPLHLAAWRGHLEIVEVLLKHGADVNAQDKFGKTPFDLAIDNGNEDIAEVLQKAAKLNDYKDDDDK
B1: binds [1].

B2: GFP(11)-HDAC6 ZnF (1108-1215) W1182A mutant (other, human, UniProt Q9UBN7 1108-1215, looked up)
chain: TPLPWCPHLVAVCPIPAAGLDVTQPCGDCGTIQENWVCLSCYQVYCGRYINGHMLQHHGNSGHPLVLSYIDLSAACYYCQAYVHHQALLDVKNIAHQNKFGEDMPHPH
notes: range 1108-1215; Specificity control in the split-GFP assay; also called ZnFm; 1182 mutant; not shown: GFP beta strand 11 and any linker
B2: no binding [2].

B3: GFP-DARPin F10 fusion protein (designed binder)
chain: DLGKKLLEAARAGQDDEVRILMANGADVNANDRNGVTPLHLAADKGHLEIVEVLLKTGADVNAIDIMGATPLHLAAAHGHLEIVEVLLKAGADVNAMDHKGFTPLHLAAWRGHLEIVEVLLKHGADVNAQDKFGKTPFDLAIDNGNEDIAEVLQKAA
notes: Transiently expressed in A549 cells from pcDNA3.1-GFP-DARPin F10; not shown: GFP and any linker
B3: binds [3].
